# Measurements as given in PMC7015924.
# Test system: His-SUMO-Piwi PAZ domain (Drosophila melanogaster)
# Assay: ITC
# Conditions: 2'-O-methyl at 3' end; ITC buffer not in material (PAZ purified in 10 mM Tris-HCl pH 8.0, 500 mM NaCl); cleavage assays 27 C, 17 h (bead/supernatant assay conditions not given) …
substance,measurement,value
8-mer RNA with 3' 2'-O-methyl,Kd,4 µM
